Data taken from patent US8895526B2, “Identification of RNAI targets and use of RNAI for rational therapy of chemotherapy-resistant leukemia and other cancers” (Cold Spring Harbor Laboratory, priority 2009, dated 2014).

B1: Adam23.5211: shRNA, SEQ ID NO: 89 (nucleic acid)
chain: TGCTGTTGACAGTGAGCGCTACGACCACGTCAGTTACAAATAGTGAAGCCACAGATGTATTTGTAACTGACGTGGTCGTATTGCCTACTGCCTCGGA
B2: Slc12a5.3582: shRNA, SEQ ID NO: 179 (nucleic acid)
chain: TGCTGTTGACAGTGAGCGAAACGAGGTCATCGTGAATAAATAGTGAAGCCACAGATGTATTTATTCACGATGACCTCGTTCTGCCTACTGCCTCGGA
B3: Thyn1.315: shRNA, SEQ ID NO: 186 (nucleic acid)
chain: TGCTGTTGACAGTGAGCGCAAGCAACTACTGGCTGATGAATAGTGAAGCCACAGATGTATTCATCAGCCAGTAGTTGCTTATGCCTACTGCCTCGGA
B4: Tnfsf12.1204: shRNA, SEQ ID NO: 187 (nucleic acid)
chain: TGCTGTTGACAGTGAGCGCAATGGATATTAAAGAGAATAATAGTGAAGCCACAGATGTATTATTCTCTTTAATATCCATTTTGCCTACTGCCTCGGA
B5: Fn1.4143: shRNA, SEQ ID NO: 121 (nucleic acid)
chain: TGCTGTTGACAGTGAGCGCCAGTAGGATACTACACAGTTATAGTGAAGCCACAGATGTATAACTGTGTAGTATCCTACTGATGCCTACTGCCTCGGA
B6: Pitpnm1.561: shRNA, SEQ ID NO: 165 (nucleic acid)
chain: TGCTGTTGACAGTGAGCGCCAGGATGCTTATCAAGGAGTATAGTGAAGCCACAGATGTATACTCCTTGATAAGCATCCTGATGCCTACTGCCTCGGA
B7: Gart.2470: shRNA, SEQ ID NO: 126 (nucleic acid)
chain: TGCTGTTGACAGTGAGCGCAAGAATCTGATTGAAACCATATAGTGAAGCCACAGATGTATATGGTTTCAATCAGATTCTTATGCCTACTGCCTCGGA
B8: Slc22a4.2223: shRNA, SEQ ID NO: 181 (nucleic acid)
chain: TGCTGTTGACAGTGAGCGCAAACGTATAAATGCTATCCAATAGTGAAGCCACAGATGTATTGGATAGCATTTATACGTTTATGCCTACTGCCTCGGA
B9: Pctk1.948: shRNA, SEQ ID NO: 161 (nucleic acid)
chain: TGCTGTTGACAGTGAGCGCCCGGGAAGTATCCCTGCTTAATAGTGAAGCCACAGATGTATTAAGCAGGGATACTTCCCGGATGCCTACTGCCTCGGA
B10: Fn3k.298: shRNA, SEQ ID NO: 122 (nucleic acid)
chain: TGCTGTTGACAGTGAGCGAAAGAGCCTTAGCAGTCAGGCATAGTGAAGCCACAGATGTATGCCTGACTGCTAAGGCTCTTCTGCCTACTGCCTCGGA
B11: Arf3.1357: shRNA, SEQ ID NO: 91 (nucleic acid)
chain: TGCTGTTGACAGTGAGCGACCCTTCTGTGTTGGTGAGATATAGTGAAGCCACAGATGTATATCTCACCAACACAGAAGGGCTGCCTACTGCCTCGGA
B12: Cd6.520: shRNA, SEQ ID NO: 102 (nucleic acid)
chain: TGCTGTTGACAGTGAGCGAGAGCCACTTCTGGGAACACAATAGTGAAGCCACAGATGTATTGTGTTCCCAGAAGTGGCTCCTGCCTACTGCCTCGGA
B13: Ap1s2.2744: shRNA, SEQ ID NO: 90 (nucleic acid)
chain: TGCTGTTGACAGTGAGCGACAGGAGCAAGATGAGTTACTATAGTGAAGCCACAGATGTATAGTAACTCATCTTGCTCCTGCTGCCTACTGCCTCGGA
B14: Dsp.6155: shRNA, SEQ ID NO: 114 (nucleic acid)
chain: TGCTGTTGACAGTGAGCGCCAGGAAGTTCTTCGATCAATATAGTGAAGCCACAGATGTATATTGATCGAAGAACTTCCTGTTGCCTACTGCCTCGGA
B15: Fgd4.821: shRNA, SEQ ID NO: 119 (nucleic acid)
chain: TGCTGTTGACAGTGAGCGAAAGGAGACTAATGAACAGAAATAGTGAAGCCACAGATGTATTTCTGTTCATTAGTCTCCTTCTGCCTACTGCCTCGGA
B16: Mef2c.1872: shRNA, SEQ ID NO: 141 (nucleic acid)
chain: TGCTGTTGACAGTGAGCGCTGCCTCAGTGATACAGTATAATAGTGAAGCCACAGATGTATTATACTGTATCACTGAGGCAATGCCTACTGCCTCGGA
B17: Pygl.1463: shRNA, SEQ ID NO: 171 (nucleic acid)
chain: TGCTGTTGACAGTGAGCGCACCAGACAAGTTCCAGAATAATAGTGAAGCCACAGATGTATTATTCTGGAACTTGTCTGGTTTGCCTACTGCCTCGGA
B18: Gas1.2159: shRNA, SEQ ID NO: 128 (nucleic acid)
chain: TGCTGTTGACAGTGAGCGACCCGAAATTACAACTGCATTATAGTGAAGCCACAGATGTATAATGCAGTTGTAATTTCGGGGTGCCTACTGCCTCGGA
B19: Cerk.4466: shRNA, SEQ ID NO: 108 (nucleic acid)
chain: TGCTGTTGACAGTGAGCGCCTGGTATATTTGAGAAGACAATAGTGAAGCCACAGATGTATTGTCTTCTCAAATATACCAGATGCCTACTGCCTCGGA
B20: L1cam.5255: shRNA, SEQ ID NO: 137 (nucleic acid)
chain: TGCTGTTGACAGTGAGCGCCAGAATTATAACAGGCAAATATAGTGAAGCCACAGATGTATATTTGCCTGTTATAATTCTGATGCCTACTGCCTCGGA
B21: Cpd.1693: shRNA, SEQ ID NO: 109 (nucleic acid)
chain: TGCTGTTGACAGTGAGCGCACCAGGTGAACCAGAATTTAATAGTGAAGCCACAGATGTATTAAATTCTGGTTCACCTGGTTTGCCTACTGCCTCGGA
B22: Fosb.1165: shRNA, SEQ ID NO: 123 (nucleic acid)
chain: TGCTGTTGACAGTGAGCGCCAGGCGGAAACTGATCAGCTTTAGTGAAGCCACAGATGTAAAGCTGATCAGTTTCCGCCTGATGCCTACTGCCTCGGA
B23: Cx3cr1.1223: shRNA, SEQ ID NO: 111 (nucleic acid)
chain: TGCTGTTGACAGTGAGCGACTGCATCTTATGTGCAAGAAATAGTGAAGCCACAGATGTATTTCTTGCACATAAGATGCAGGTGCCTACTGCCTCGGA

These molecules were tested on immortalized murine embryonic fibroblasts (Mef) (assay: Pooled negative selection RNAi screening (deep sequencing)). Conditions: deep sequencing reads, on dox compared to initial representation.
Format: cell-based
Text: (§1) In addition to the analysis of single shRNAs for inhibitory effects in vitro and in vivo, the combination of tet-on competent cancer models and tet-regulatable shRNA expression vectors allowing for monitoring shRNA expression through fluorescent and other reporter genes (e.g. TRMPV and derivates) facilitates pooled shRNA negative selection screening (FIG. 37). In such approaches a pool of over 1,000 shRNAs are retrovirally transduced into tet-on competent cancer models (here MLL/AF9+Nras AML) and selected for shRNA containing cells by either drug selection (e.g. G418) or fluorescence-activated cell sorting (FACS). Selected cell populations harboring a library of shRNAs then can be cultured in the absence or presence of doxycyline (off dox and on dox, respectively) or injected into syngeneic recipient mice that are either treated with doxycyline or left untreated.
(§2) The representation of each shRNA within the pool can be effectively assessed by deep sequencing of shRNA cassettes in a given cell population. For this, genomic DNA is extracted from leukemia cells containing the shRNA pool, and the shRNA guide or passenger strand (21-22 target gene specific nucleotides of the shRNA) by PCR using primers specific for common sequences flanking the gene specific part of the shRNA (e.g. miR30 19 nt loop and miR30 common 3′ sequence). The primers also contain 5′-adapters required for deep sequencing (e.g. for Illumina/Solexa sequencing primers are p5+mir3: 5′-[…]-3′ (SEQ ID NO: 215) and p7+Loop: 5′-[…]-3′ (SEQ ID NO: 216)). Deep sequencing is subsequently performed using a primer binding the flanking nucleotide sequence next to the target gene specific part of the shRNA (for Illumina/Solexa platforms the primer is mir30EcoR1Seq: 5′-TAGCCCCTTGAATTCCGA GGCAGTAGGCA-3′ (SEQ ID NO: 217)).
(§3) The use of shRNA vectors that allow for monitoring of shRNA expression through fluorescent and other reporter genes (e.g. TRMPV) in combination with tet-on competent mouse models facilitates the isolation of pure shRNA expressing cell populations (e.g. by FACS, for TRMPV by sorting of Venus/dsRed double positive cells (FIG. 38). This selection of shRNA expressing cells prior to DNA isolation strongly reduces the background caused by cell populations with insufficient shRNA induction, which are predicted to contain genomic representation of the whole shRNA library without shRNA specific shifts in representation. The final readout is based on the comparison of shRNA representation (i.e. deep sequencing read numbers) before the assay (t0) or from cell populations left without doxycycline treatment (off dox) to those where shRNA were induced and cells subsequently sorted for shRNA expressing cells (on dox). shRNA with inhibitory effects are predicted to loose representation (show less reads) on dox compared to t0 and off dox.
(§4) This pooled is RNAi screening strategy can be applied to rapidly survey inhibitory effects of large pools of shRNAs (˜1000 at a time) in different tet-on competent cancer models and normal control cells (FIG. 39). For example, a pool of 1166 shRNAs targeting 836 predominantly druggable genes associated with MLL fusion proteins in human leukemia and mouse models of MLL/AF9-induced AML (MLL cure library) was analyzed in pooled negative selection screening in tet-on competent MLL/AF9+Nras AML and immortalized murine embryonic fibroblasts (Mef) in parallel. To establish and validate this screening approach, the pool also contained 64 control shRNAs each of which have been previously analyzed for inhibitory effects in both AML cells and Mefs using the same experimental system (FIG. 40).
(§5) After pooling of 1166 experimental and 64 control shRNAs the presence of shRNAs was verified by deep sequencing of shRNAs within the plasmid vector pool (FIG. 41). […]
With B1 the “Fold depletion in Mef” value was 0.30 Fold. For B2, the “Fold depletion in Mef” value was 2.21 Fold. In the case of B3, the “Fold depletion in Mef” value is reported as 1.04 Fold. With B4 the “Fold depletion in Mef” value was 0.93 Fold. With B5 the “Fold depletion in Mef” value was 0.84 Fold. For B6, the “Fold depletion in Mef” value was 0.27 Fold. B7 was tested, and the “Fold depletion in Mef” value was 0.67 Fold. With B8 the “Fold depletion in Mef” value was 3.41 Fold. For B9, the “Fold depletion in Mef” value was 0.27 Fold. For B10, the “Fold depletion in Mef” value was 2.82 Fold. For B11, the “Fold depletion in Mef” value was 0.86 Fold. In the case of B12, the “Fold depletion in Mef” value is reported as 2.28 Fold. In the case of B13, the “Fold depletion in Mef” value is reported as 2.31 Fold. B14 was tested, and the “Fold depletion in Mef” value was 0.60 Fold. For B15, the “Fold depletion in Mef” value was 2.12 Fold. B16 was tested, and the “Fold depletion in Mef” value was 0.77 Fold. With B17 the “Fold depletion in Mef” value was 1.94 Fold. B18 was tested, and the “Fold depletion in Mef” value was 0.81 Fold. With B19 the “Fold depletion in Mef” value was 0.61 Fold. In the case of B20, the “Fold depletion in Mef” value is reported as 1.26 Fold. For B21, the “Fold depletion in Mef” value was 3.91 Fold. B22 was tested, and the “Fold depletion in Mef” value was 3.61 Fold. In the case of B23, the “Fold depletion in Mef” value is reported as 0.69 Fold.

These molecules were tested on tet-on competent MLL/AF9+Nras AML in the same assay as above. Conditions: deep sequencing reads, On Dox compared to T0.
Format: cell-based, mouse
Text: as §1, §2, §3, §4, §5
B1 was tested, and the “Fold depletion in AML” value was 40.11 Fold. For B2, the “Fold depletion in AML” value was 12.58 Fold. For B3, the “Fold depletion in AML” value was 145.53 Fold. B4 was tested, and the “Fold depletion in AML” value was 36.03 Fold. With B5 the “Fold depletion in AML” value was 36.54 Fold. In the case of B6, the “Fold depletion in AML” value is reported as 60.72 Fold. With B7 the “Fold depletion in AML” value was 146.15 Fold. With B8 the “Fold depletion in AML” value was 41.21 Fold. For B9, the “Fold depletion in AML” value was 123.76 Fold. For B10, the “Fold depletion in AML” value was 103.54 Fold. B11 was tested, and the “Fold depletion in AML” value was 94.96 Fold. B12 was tested, and the “Fold depletion in AML” value was 28.66 Fold. For B13, the “Fold depletion in AML” value was 57.84 Fold. For B14, the “Fold depletion in AML” value was 242.96 Fold. For B15, the “Fold depletion in AML” value was 25.66 Fold. B16 was tested, and the “Fold depletion in AML” value was 63.15 Fold. In the case of B17, the “Fold depletion in AML” value is reported as 118.65 Fold. With B18 the “Fold depletion in AML” value was 132.34 Fold. In the case of B19, the “Fold depletion in AML” value is reported as 27.79 Fold. With B20 the “Fold depletion in AML” value was 31.42 Fold. B21 was tested, and the “Fold depletion in AML” value was 50.07 Fold. With B22 the “Fold depletion in AML” value was 13.12 Fold. For B23, the “Fold depletion in AML” value was 12.98 Fold.
